Results as given in article PMC8041205.

Key:
[1] = target: commercially available recombinant MyD88 (UniProt Q99836); assay: ITC; 1 uM rTcpC in PBS in the titration pool, 0.1 uM UBE2D1 or rMyD88 in PBS in the sample pool; VP-ITC microcalorimeter
BSA = assay: SPR; settings: natural protein

recombinant TcpC (Toll/interleukin-1 receptor domain-containing protein encoded by E. coli) (from UniProt A0A0H2V8B5 1-307), sequence (A0A0H2V8B5 whole entry, the tested form may be a part): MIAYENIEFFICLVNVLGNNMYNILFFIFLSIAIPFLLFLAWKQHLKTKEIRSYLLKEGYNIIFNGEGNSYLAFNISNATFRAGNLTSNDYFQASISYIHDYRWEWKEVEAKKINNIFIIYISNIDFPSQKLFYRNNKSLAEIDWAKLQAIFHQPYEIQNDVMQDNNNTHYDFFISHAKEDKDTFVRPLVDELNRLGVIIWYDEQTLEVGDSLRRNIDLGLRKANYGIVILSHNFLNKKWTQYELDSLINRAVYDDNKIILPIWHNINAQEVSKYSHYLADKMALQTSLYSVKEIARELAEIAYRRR
recombinant TcpC (Toll/interleukin-1 receptor domain-containing protein encoded by E. coli) (from UniProt A0A0H2V8B5 1-307) (natural protein; other documents disagree on this pair), sequence (A0A0H2V8B5 whole entry, the tested form may be a part): as above
commercially available recombinant MyD88, sequence (Q99836 whole entry): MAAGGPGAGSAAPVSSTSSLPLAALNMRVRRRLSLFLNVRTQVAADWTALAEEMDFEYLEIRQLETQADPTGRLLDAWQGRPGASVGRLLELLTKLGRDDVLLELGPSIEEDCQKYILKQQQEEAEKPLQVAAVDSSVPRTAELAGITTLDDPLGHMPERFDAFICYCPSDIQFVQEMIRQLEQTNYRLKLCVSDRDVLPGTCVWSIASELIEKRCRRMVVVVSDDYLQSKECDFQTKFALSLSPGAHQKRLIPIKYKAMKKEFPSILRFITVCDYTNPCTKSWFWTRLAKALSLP

**Q.** How did the Kd [1] turn out when “recombinant TcpC (Toll/interleukin-1 receptor domain-containing protein encoded by E. coli) (from UniProt A0A0H2V8B5 1-307) (natural protein; other documents disagree on this pair)” was run?
**A.** The Kd was 0.539 µM.

**Q.** For “recombinant TcpC (Toll/interleukin-1 receptor domain-containing protein encoded by E. coli) (from UniProt A0A0H2V8B5 1-307)”, which Kd (BSA) is on record?
**A.** The Kd was > 10000 µM.
